Source: paper PMC6615313

Each sequence was assayed on T1, SigL (sigma54) (Clostridium beijerinckii NCIMB 8052), ORF:07123114 (assay: EMSA). Settings: not stated; EMSA as described previously (ref 21), Cy5-labeled DNA, SigL up to 1500 nM.
T1 sequence: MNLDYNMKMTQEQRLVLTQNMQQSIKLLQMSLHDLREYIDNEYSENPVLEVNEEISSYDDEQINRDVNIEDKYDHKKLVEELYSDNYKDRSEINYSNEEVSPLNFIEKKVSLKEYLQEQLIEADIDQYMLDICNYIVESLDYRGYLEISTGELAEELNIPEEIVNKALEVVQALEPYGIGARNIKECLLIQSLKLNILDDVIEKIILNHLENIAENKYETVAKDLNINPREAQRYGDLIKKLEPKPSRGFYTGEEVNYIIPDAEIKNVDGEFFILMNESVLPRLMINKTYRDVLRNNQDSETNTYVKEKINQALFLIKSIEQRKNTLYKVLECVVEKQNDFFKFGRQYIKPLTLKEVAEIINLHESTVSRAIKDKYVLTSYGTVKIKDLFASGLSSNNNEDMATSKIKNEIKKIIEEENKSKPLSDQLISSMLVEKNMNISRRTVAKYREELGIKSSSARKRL
“AGCCAGTGGCGATAAGGGTGTACAAAATATAGACATAAATAAAATTGATATATTTAGGAATTGATTACGAAAACCACAATATATAAGGTTTCATGGAAAAAATATGATTGGCATGCTTATTGCTAATAATAAAATTAACGGGAGTAGTAAGTGAACTAATATATATAACTTAATTTTTCCACAATCTTTAGTGCAATGCTATTTGCTATTTAAGGACTTATCGCCACTGGCT (double strand) [crt (crt-bcd-etfAB-moaC) promoter]” was tested, and the binding was “binds”. “AGCCAGTGGCGATAAGGGGGAAAATCTTTAAAAGTGTACAAAAAAAACACATATTTTTCTGATTTATTTTATTTAAAAAGGTAAATAGAATTAATAGTAAACAGTTTAAAAAAATAATATTTAAAGAGTTTAGTAGATTTGGAAAAGGTTTTCGACTTTTGGAAAGAAACTTGGCATCCTAATTGCTCTATAAAAAGGTATGAGGAGGGATTATGACTTATCGCCACTGGCT (double strand) [cotX (cotX-gntT) promoter]” was tested, and the binding was “binds”. With “AGCCAGTGGCGATAAGCCAGAAAAGAGTAAGATTCTCAAAATAGGACACTAAGTATGTGTCATAATGGCACATAGTGATTTTAAATGTCTTTTTAACAGGTTTCTTGTTTTTGGTATGGCTTTTGCTTATAAAATATAGTGAATATATTAACAGGTATATGTAAATTTTAATATTGCCATACTATTATAAAAAAGGAGAGATAATTCTTATCGCCACTGGCT (double strand) [butA promoter]” the binding was “binds”.
